Data reported in publication PMC8673766 (Science Advances, 2021).

Target: T1, inhibin B (UniProt P05111 233-366; P09529 293-407)
T1 sequence (looked up) 1: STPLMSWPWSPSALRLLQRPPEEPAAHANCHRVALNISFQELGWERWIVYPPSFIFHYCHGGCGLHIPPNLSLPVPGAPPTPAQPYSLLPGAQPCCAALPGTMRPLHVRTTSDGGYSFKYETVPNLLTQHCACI
T1 sequence (looked up) 2: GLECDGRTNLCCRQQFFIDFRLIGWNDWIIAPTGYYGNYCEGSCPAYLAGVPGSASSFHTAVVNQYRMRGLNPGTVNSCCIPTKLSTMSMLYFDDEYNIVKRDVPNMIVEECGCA
Experiment: SPR

B1: murine TGFBR3L extracellular domain (R36-R211) (domain or fragment, UniProt D3YZZ2 36-211, looked up)
chain: RRPLFSLELSDAEDAFPRRAGPLEVPADSHVFVQAALARPSPRWGLALHRCSVTPSSRPTLGPALVLLRGGCPADDSVSFSPPPRPDAASVSRFSFRLRPVFNASVQFLHCQISRCRRRSSHHRRAVRLTPVPLTPPAPLRCLPQDEACAGSSLSLGTDSPHLHMLTQPIVVTIPR
Kd: 52 nM
